From article PMC10613257 come the findings set out here.

Assay [1] addresses insulin-like growth factor binding protein 5 (IGFBP5), full length, wild type (UniProt P24593). The assay is described as follows: fluorescence polarisation; FAM-labelled FL IGFBP5 at 5 nM; enzyme serially diluted from 10 µM to 0.5 nM; 1X PBS; 384-well plates; catalytically inactive enzymes. A general note: Polarisation of emitted light reports the rotation of a fluorescent probe.

For assay [2] the target is unchanged. The assay is described as follows: FP. To be noted: enzyme.

Sequence of insulin-like growth factor binding protein 5 (IGFBP5), full length, wild type (P24593 21-272): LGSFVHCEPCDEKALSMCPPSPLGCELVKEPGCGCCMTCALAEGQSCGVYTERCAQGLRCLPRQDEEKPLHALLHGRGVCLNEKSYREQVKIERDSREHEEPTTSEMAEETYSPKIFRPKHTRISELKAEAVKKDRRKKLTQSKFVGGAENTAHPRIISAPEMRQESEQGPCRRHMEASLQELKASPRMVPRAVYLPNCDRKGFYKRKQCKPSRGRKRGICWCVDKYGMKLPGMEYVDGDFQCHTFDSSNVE

“PAPP-A2 E500Q (catalytically inactive) (from UniProt Q9BXP8 235-1791) (enzyme)” registered a fold weaker binding than PAPP-A E483A in assay [1] of 11 fold. For orientation: Kd means the free concentration of one partner at which half of the binding sites on the other are occupied at equilibrium, for simple one-to-one binding. A lower Kd goes with a tighter complex. Take “PAPP-A2 E500Q (catalytically inactive) (from UniProt Q9BXP8 235-1791)”: in assay [2], the Kd is 2640 nM.
